B2: APP-Fc (APP695 extracellular domain, residues 1-596, fused to the constant region of human IgG) (Fc fusion, UniProt P12023-2 18-596, looked up)
chain: LEVPTDGNAGLLAEPQIAMFCGKLNMHMNVQNGKWESDPSGTKTCIGTKEGILQYCQEVYPELQITNVVEANQPVTIQNWCKRGRKQCKTHTHIVIPYRCLVGEFVSDALLVPDKCKFLHQERMDVCETHLHWHTVAKETCSEKSTNLHDYGMLLPCGIDKFRGVEFVCCPLAEESDSVDSADAEEDDSDVWWGGADTDYADGGEDKVVEVAEEEEVADVEEEEADDDEDVEDGDEVEEEAEEPYEEATERTTSTATTTTTTTESVEEVVRVPTTAASTPDAVDKYLETPGDENEHAHFQKAKERLEAKHRERMSQVMREWEEAERQAKNLPKADKKAVIQHFQEKVESLEQEAANERQQLVETHMARVEAMLNDRRRLALENYITALQAVPPRPHHVFNMLKKYVRAEQKDRQHTLKHFEHVRMVDPKKAAQIRSQVMTHLRVIYERMNQSLSLLYNVPAVAEEIQDEVDELLQKEQNYSDDVLANMISEPRISYGNDALMPSLTETKTTVELLPVNGEFSLDDLQPWHPFGVDSVPANTENEVEPVDARPAADRGLTTRPGSGLTNIKTEEISEVKM

What was measured:
[1] = biological target: B2; experiment: pull-down; 100 ng purified APP-Fc on Protein A-agarose beads, incubated with 100 ng purified MBP-LRP4LBD and 0-1000 ng neuronal agrin in PBS with 0.1% BSA, 4 hr, 4°C; immunoblot with anti-MBP, anti-agrin, anti-Fc; conditions: both partners purified
[2] = biological target: LRP4 (endogenous, mouse embryonic muscle) (mouse (endogenous in embryonic muscle), UniProt Q8VI56 21-1905); experiment: cell-based or functional assay
Chain of LRP4 (endogenous, mouse embryonic muscle) (Q8VI56 21-1905): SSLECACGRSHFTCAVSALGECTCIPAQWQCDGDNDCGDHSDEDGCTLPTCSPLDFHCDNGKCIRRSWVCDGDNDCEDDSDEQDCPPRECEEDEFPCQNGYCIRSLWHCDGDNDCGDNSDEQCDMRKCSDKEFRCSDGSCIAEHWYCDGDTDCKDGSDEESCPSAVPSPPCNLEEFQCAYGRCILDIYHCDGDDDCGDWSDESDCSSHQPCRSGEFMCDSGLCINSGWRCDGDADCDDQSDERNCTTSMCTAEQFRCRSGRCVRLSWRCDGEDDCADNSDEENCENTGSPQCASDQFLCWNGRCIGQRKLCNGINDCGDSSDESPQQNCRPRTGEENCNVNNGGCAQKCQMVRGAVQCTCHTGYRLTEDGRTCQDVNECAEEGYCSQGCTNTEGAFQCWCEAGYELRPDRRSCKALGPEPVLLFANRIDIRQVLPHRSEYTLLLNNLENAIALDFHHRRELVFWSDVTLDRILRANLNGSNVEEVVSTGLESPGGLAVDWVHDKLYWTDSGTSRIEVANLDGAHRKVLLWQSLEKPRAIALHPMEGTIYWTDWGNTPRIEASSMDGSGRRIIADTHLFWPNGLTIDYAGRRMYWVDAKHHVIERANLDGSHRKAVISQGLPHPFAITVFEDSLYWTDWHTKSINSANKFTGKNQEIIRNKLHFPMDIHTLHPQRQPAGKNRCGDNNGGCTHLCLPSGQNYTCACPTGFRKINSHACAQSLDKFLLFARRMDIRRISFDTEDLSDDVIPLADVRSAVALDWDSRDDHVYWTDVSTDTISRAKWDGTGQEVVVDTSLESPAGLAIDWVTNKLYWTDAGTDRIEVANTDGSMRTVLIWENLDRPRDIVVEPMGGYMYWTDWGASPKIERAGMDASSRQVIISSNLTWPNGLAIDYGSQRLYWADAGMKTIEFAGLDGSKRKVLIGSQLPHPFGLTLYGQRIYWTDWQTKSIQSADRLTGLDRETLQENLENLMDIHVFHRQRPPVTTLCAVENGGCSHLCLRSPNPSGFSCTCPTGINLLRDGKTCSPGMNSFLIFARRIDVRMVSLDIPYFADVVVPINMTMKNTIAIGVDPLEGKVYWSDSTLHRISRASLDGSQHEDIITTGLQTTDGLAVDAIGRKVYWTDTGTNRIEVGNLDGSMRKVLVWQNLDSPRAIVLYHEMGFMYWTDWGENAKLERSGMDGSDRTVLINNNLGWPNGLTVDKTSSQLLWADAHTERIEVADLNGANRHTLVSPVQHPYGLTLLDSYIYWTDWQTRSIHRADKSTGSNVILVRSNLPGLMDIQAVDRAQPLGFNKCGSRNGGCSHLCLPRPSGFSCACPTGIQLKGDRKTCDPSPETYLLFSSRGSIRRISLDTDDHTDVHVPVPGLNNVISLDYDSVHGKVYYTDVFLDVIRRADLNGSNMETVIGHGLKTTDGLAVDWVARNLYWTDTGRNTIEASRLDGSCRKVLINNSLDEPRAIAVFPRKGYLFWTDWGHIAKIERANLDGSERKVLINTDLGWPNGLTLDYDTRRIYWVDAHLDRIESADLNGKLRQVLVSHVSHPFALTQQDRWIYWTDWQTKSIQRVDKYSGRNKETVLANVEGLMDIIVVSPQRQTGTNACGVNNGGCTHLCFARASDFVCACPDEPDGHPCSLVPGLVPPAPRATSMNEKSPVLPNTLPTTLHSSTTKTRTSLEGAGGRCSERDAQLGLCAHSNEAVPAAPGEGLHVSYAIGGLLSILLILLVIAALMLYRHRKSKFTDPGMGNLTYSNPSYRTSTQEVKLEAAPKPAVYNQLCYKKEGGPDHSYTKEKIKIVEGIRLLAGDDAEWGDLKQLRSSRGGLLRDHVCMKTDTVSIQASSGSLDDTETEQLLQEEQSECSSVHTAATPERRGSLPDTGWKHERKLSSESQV

B1: MBP-LRP4LBD (LRP4 ligand binding domain, aa 27-349, fused to maltose-binding protein) (domain or fragment, mouse, UniProt Q8VI56 27-349, looked up)
chain: CGRSHFTCAVSALGECTCIPAQWQCDGDNDCGDHSDEDGCTLPTCSPLDFHCDNGKCIRRSWVCDGDNDCEDDSDEQDCPPRECEEDEFPCQNGYCIRSLWHCDGDNDCGDNSDEQCDMRKCSDKEFRCSDGSCIAEHWYCDGDTDCKDGSDEESCPSAVPSPPCNLEEFQCAYGRCILDIYHCDGDDDCGDWSDESDCSSHQPCRSGEFMCDSGLCINSGWRCDGDADCDDQSDERNCTTSMCTAEQFRCRSGRCVRLSWRCDGEDDCADNSDEENCENTGSPQCASDQFLCWNGRCIGQRKLCNGINDCGDSSDESPQQNC
notes: Species is stated as mouse for the LRP4-Fc construct, not expressly for this one; Vector pMAL-p4x; also called LRP4-MBP; source: E. coli BL21, periplasmic extract, purified on amylose column; not shown: MBP, N-terminal, kept
fold binding against no agrin, with 10 ng/ml agrin [1]: 1.3 fold | fold binding against no agrin, with 30 ng/ml agrin [1]: 3 fold

B2
MuSK tyrosine phosphorylation in myotubes, APP-Fc alone at 1×, 10× or 100× molar concentrations compared to 0.1 nM agrin (0.1-10 nM), 30 min at 37°C, without agrin [2]: 4.3 fold over baseline

From publication PMC3748711, “APP interacts with LRP4 and agrin to coordinate the development of the neuromuscular junction in mice” (eLife, 2013)
